According to patent publication US9308238B2, “Compositions and methods for modulating EMT and uses thereof” (Whitehead Institute for Biomedical Research, priority 2010, dated 2016):

How the values were obtained:
Assay type in all cases: cell-based, human
HMLE^24+ cells = experiment: Boyden chamber migration assay, HMLE^24+ cells
Experimental: FIGS. 3A-3E. Autocrine Signaling controls migration and mammosphere formation.
(§1) FIGS. 5A-5H. Concomitant stimulation of Wnt and TGF-beta pathways allows HMLE^24+ cells to enter into a mesenchymal and SC-like state. (FIG. 5A) RT-PCR: N-Cadherin, Zeb1 and Zeb2, L32 was loading control, n=3. Prior RNA isolation, HMLE^24+-shGFP or -shSFRP1 (stable knockdown of SFRP1, FIG. 12A) cells were treated for 3 days with daily doses of indicated factors: anti-DKK1 antibody (10 μg/ml), anti-E-Cadherin antibody (1 μg/ml), TGF-beta 1 (5 ng/ml), Wnt5a (250 ng/ml), (FIG. 5B) Brightfield microscopy: images of control, TGF-beta- and iEMT-cocktail treated HMLE^24+ cells after 14 days of treatment as indicated (see also FIG. 12D). (FIG. 5C) RT-PCR: Zeb1, Zeb2, E-Cadherin and N-Cadherin, L32 was loading control, n=3. After 14 day treatment, cells were expanded in absence of further stimulation for 4 passages. Shown are PBS-treated control HMLE^24+-shGFP and HMLE^24+-shSFRP1 cells, two HMLE^24+-shGFP cultures treated with TGF-beta 1 (TGF-β-a and -b), two HMLE^24+-shSFRP1 cultures treated with the iEMT-cocktail (iEMT-a and -b). (FIG. 5D) Immunoblot: EMT markers and associated autocrine pathways, cells generated as described in (C). (FIG. 5E) Migration (Boyden Chamber Assay) and Mammosphere Assay: cells generated as indicated in (C), *control vs. TGF-beta treatment, p<1×10^−4, **control vs. iEMT-treatment, p<1×10^−9, n(migration)=3, n(mammospheres)/1000 cells, n=7. (FIG. 5F) Flow cytometry: CD44 and CD24 cell-surface marker expression in control, TGF-beta-a and iEMT-a cells generated as described in (C). (FIG. 5G) Lung metastasis: cells expanded for 8 passages after cessation of treatment as described in (C) were transformed with RAS; 1.0×10^5 cells were injected into the mammary fat pads of mice; GFP-labeled metastases on the surface of the lungs were quantified; *control vs. all other groups, p<0.05, n=5 mice/group. […]

HMLE-iEMT-a cells [1] = experiment: Boyden chamber migration assay, iEMT-cells; conditions: SFRP1 1 μg/ml/d, BMP4 0.5 μg/ml/d; extent comparable to HTwist and MSP cells
Experimental: as §1, with “(FIG. 5D) Immunoblot: EMT markers and associated autocrine pathways, cells generated as described in (C). (FIG. 5E) Migration (Boyden Chamber Assay) and Mammosphere Assay: cells generated as indicated in (C), *control vs. TGF-beta treatment, p<1×10^−4, **control vs. iEMT-treatment, p<1×10^−9, n(migration)=3, n(mammospheres)/1000 cells, n=7. (FIG. 5F) Flow cytometry: CD44 and CD24 cell-surface marker expression in control, TGF-beta-a and iEMT-a cells generated as described in (C).” left out

MSP-RAS cells = experiment: Boyden chamber migration assay, MSP-RAS cells; conditions: SFRP1 1 μg/ml, BMP4 0.5 μg/ml
Experimental: FIGS. 4A-4G. Autocrine Signaling controls tumorigenicity and metastasis of MSP-RAS cells. (FIG. 4A) Migration assay: RAS-transformed MSP (MSP-RAS) were seeded in Boyden Chamber migration assays and recombinant SFRP1 (1 μg/ml) and BMP4 protein (0.5 μg/ml) were added; *control vs. single treatment, p<1×10^−8, **single vs. double treatment with SFRP1 and BMP4 (S+B), p<1×10^−4, n=3. […] (FIG. 4E) Lung metastasis: fluorescence microscopy images of the major left lung lobe showing GFP-expressing metastatic nodules and quantification of the number of lung surface metastases; *control vs. SFRP1 treatment, p<0.05, **SFRP1 vs. BMP4 or double treatment (S+B), p<0.05, n=5 mice/group. (FIG. 4F) Liver metastasis: fluorescence microscopy images of the liver surface showing GFP-expressing micro-metastatic nodules after implantation of cells as described in (D) and quantification: 5 fields of liver surface were counted per mouse, *control vs. single treatment, p<0.05, **single vs. double treatment (S+B), p<0.05, n=5 mice/group. […]

HMLE-iEMT-a cells [2] = experiment: Mammosphere assay, iEMT-cells; conditions: SFRP1 1 μg/ml/d, BMP4 0.5 μg/ml/d; extent comparable to HTwist and MSP cells
Experimental: as §1, with “(FIG. 5D) Immunoblot: EMT markers and associated autocrine pathways, cells generated as described in (C). (FIG. 5E) Migration (Boyden Chamber Assay) and Mammosphere Assay: cells generated as indicated in (C), *control vs. TGF-beta treatment, p<1×10^−4, **control vs. iEMT-treatment, p<1×10^−9, n(migration)=3, n(mammospheres)/1000 cells, n=7. (FIG. 5F) Flow cytometry: CD44 and CD24 cell-surface marker expression in control, TGF-beta-a and iEMT-a cells generated as described in (C).” left out

HTwist cells = experiment: Mammosphere assay, HTwist cells; conditions: for reduction in sphere-forming efficiency, primary mammosphere formation: single vs combined proteins, daily for 5 days (FIG. 10C)
Experimental: FIGS. 10A-10E. […] (FIG. 10E) Mammosphere Assay: HTwist and MSP were treated daily during mammosphere formation (5 days) with BMP4 (0.5 μg/ml), SB431542 (10 μM) or a combination of both, n(mammospheres)/1000 cells, n=6.
Mammosphere and tumorsphere assay. Assays were performed as previously described with modifications (Dontu et al., 2003): 1000 cells/well were seeded in 96-well ultra-low adhesion plates (Corning) in MEGM medium containing 1.3% methylcellulose (Stem Cell Technologies) supplemented with 20 ng/ml EGF, 10 ng/ml bFGF (both Sigma) and B27 (Gibco). Primary spheres were dissociated by trypsinization and replated for secondary sphere formation after a period of 5-7 days.

| Molecule | increase in ability to migrate vs untreated control cells (HMLE^24+ cells; after 14 day treatment) | effect on migration of iEMT-cells (HMLE-iEMT-a cells [1]) | decrease of motility in vitro (MSP-RAS cells) [fold] | effect on mammosphere formation of iEMT-cells (HMLE-iEMT-a cells [2]) | reduction in sphere-forming efficiency, primary mammosphere formation (HTwist cells) [%] | motility of HMLE^24+ cells upon addition of protein (HMLE^24+ cells; 0.5 μg/ml in growth medium) | reduction of primary mammosphere number (HTwist cells; added daily for 5 days (FIG. 3D)) [%] | reduction of secondary sphere formation (HTwist cells; treated during primary sphere formation only) [%] |
| --- | --- | --- | --- | --- | --- | --- | --- | --- |
| TGF-beta 1: recombinant TGF-beta 1 protein, used at 5 ng/ml | not in motility |  |  |  |  |  |  |  |
| BMP4: Recombinant BMP4 protein obtained from Stemgent (protein, UniProt P12644 293-408, looked up) Bone morphogenetic protein 4: SPKHHSQRARKKNKNCRRHSLYVDFSDVGWNDWIVAPPGYQAFYCHGDCPFPLADHLNSTNHAIVQTLVNSVNSSIPKACCVPTELSAISMLYLDEYDKVVLKNYQEMVVEGCGCR |  | inhibited | 4 | inhibited | 64 |  |  |  |
| SFRP1: Recombinant human SFRP1 protein (R&D Systems), secreted decoy receptor binding canonical and non-canonical Wnt ligands (protein, UniProt Q8N474 32-314, looked up) Secreted frizzled-related …: SEYDYVSFQSDIGPYQSGRFYTKPPQCVDIPADLRLCHNVGYKKMVLPNLLEHETMAEVKQQASSWVPLLNKNCHAGTQVFLCSLFAPVCLDRPIYPCRWLCEAVRDSCEPVMQFFGFYWPEMLKCDKFPEGDVCIAMTPPNATEASKPQGTTVCPPCDNELKSEAIIEHLCASEFALRMKIKEVKKENGDKKIVPKKKKPLKLGPIKKKDLKKLVLYLKNGADCPCHQLDNLSHHFLIMGRKVKSQYLLTAIHKWDKKNKEFKNFMKKMKNHECPTFQSVFK |  | inhibited | 9 | inhibited | 40 | not further reduced | 50 | 90 |
